According to publication PMC4479559:

Key:
[1] = target: Clostridium oremlandii methionine sulfoxide reductase A, Sec-to-Cys form (Clostridium oremlandii (strain OhILAs)); assay: non-reducing SDS-PAGE; time course, 84 μM MsrA with 0.2 mM free methionine sulfoxide; dimer ratios by ImageJ, fitted with Prism 5
[2] = target: Clostridium oremlandii methionine sulfoxide reductase A, Sec-to-Cys form (Clostridium oremlandii (strain OhILAs)); assay: non-reducing SDS-PAGE; series of MsrA concentrations, 2 h with 0.2 mM free methionine sulfoxide; dimer ratios by ImageJ, fitted with Prism 5

D1/2 (reaction time to reach half Dmax) [1]: 5.8 min
D1/2 (concentration of MsrA to reach half Dmax) [2]: 7.6 µM
Dmax (maximal percent of dimer) [2]: 98%
Substance: Clostridium oremlandii methionine sulfoxide reductase A, Sec-to-Cys form (enzyme)
